Data taken from the Human Domainome abundance scans (Beltran et al. 2025).
± gives the uncertainty stated by the source.

Assay: abundance fitness (aPCA) (normalised: wild type 0, dead -1); higher = more abundant; growth selection in yeast, the domain comes from the species named
Conditions: Homo sapiens

Substance | abundance fitness
SAFB-like transcription modulator P63W, Q9NWH9 | -0.245 ± 0.059
BAG family molecular chaperone regulator 3 D41M, O95817 | -1 ± 0.45
SAFB-like transcription modulator I49K, Q9NWH9 | -0.401 ± 0.078
SAFB-like transcription modulator I66E, Q9NWH9 | -0.272 ± 0.061
SAFB-like transcription modulator I49H, Q9NWH9 | -0.29 ± 0.1
SAFB-like transcription modulator V47Y, Q9NWH9 | -0.525 ± 0.044
BAG family molecular chaperone regulator 3 G17F, O95817 | -0.177 ± 0.23
BAG family molecular chaperone regulator 3 N16E, O95817 | 0.658 ± 0.11
SAFB-like transcription modulator E57M, Q9NWH9 | -0.164 ± 0.094
BAG family molecular chaperone regulator 3 N43Q, O95817 | -0.435 ± 0.43
BAG family molecular chaperone regulator 3 R19K, O95817 | 0.042 ± 0.11
SAFB-like transcription modulator R37G, Q9NWH9 | -0.912 ± 0.047
BAG family molecular chaperone regulator 3 V40H, O95817 | -0.082 ± 0.17
SAFB-like transcription modulator V27Q, Q9NWH9 | -0.426 ± 0.15
SAFB-like transcription modulator V44L, Q9NWH9 | -0.122 ± 0.038
SAFB-like transcription modulator L48R, Q9NWH9 | -0.537 ± 0.043
SAFB-like transcription modulator N65D, Q9NWH9 | -0.186 ± 0.082
BAG family molecular chaperone regulator 3 L22D, O95817 | -0.753 ± 0.42
SAFB-like transcription modulator K20T, Q9NWH9 | -0.212 ± 0.053
SAFB-like transcription modulator L34N, Q9NWH9 | -0.964 ± 0.45
BAG family molecular chaperone regulator 3 P37C, O95817 | 0.143 ± 0.2
SAFB-like transcription modulator D64G, Q9NWH9 | -0.09 ± 0.041
BAG family molecular chaperone regulator 3 P24V, O95817 | -0.784 ± 0.23
SAFB-like transcription modulator I28K, Q9NWH9 | -0.22 ± 0.22
BAG family molecular chaperone regulator 3 V54R, O95817 | -0.083 ± 0.081

Substance | abundance fitness
SAFB-like transcription modulator K20V, Q9NWH9 | -0.252 ± 0.072
BAG family molecular chaperone regulator 3 P32Q, O95817 | -0.205 ± 0.28
SAFB-like transcription modulator K35S, Q9NWH9 | -0.034 ± 0.07
BAG family molecular chaperone regulator 3 W36G, O95817 | 0.48 ± 0.35
SAFB-like transcription modulator I28E, Q9NWH9 | -0.1 ± 0.11
SAFB-like transcription modulator I41F, Q9NWH9 | 0.197 ± 0.079
BAG family molecular chaperone regulator 3 T47G, O95817 | -0.796 ± 0.14
BAG family molecular chaperone regulator 3 Q11S, O95817 | 0.63 ± 0.11
SAFB-like transcription modulator V47T, Q9NWH9 | 0.089 ± 0.064
SAFB-like transcription modulator V47Q, Q9NWH9 | 0.019 ± 0.047
BAG family molecular chaperone regulator 3 P24Y, O95817 | -0.31 ± 0.28
SAFB-like transcription modulator R37D, Q9NWH9 | -0.621 ± 0.052
BAG family molecular chaperone regulator 3 S44Q, O95817 | -0.44 ± 0.29
SAFB-like transcription modulator L39C, Q9NWH9 | -0.446 ± 0.079
BAG family molecular chaperone regulator 3 L22G, O95817 | -0.144 ± 0.13
SAFB-like transcription modulator R26Y, Q9NWH9 | -0.579 ± 0.27
BAG family molecular chaperone regulator 3 P32M, O95817 | -0.766 ± 0.23
BAG family molecular chaperone regulator 3 R45G, O95817 | -0.087 ± 0.085
BAG family molecular chaperone regulator 3 V54W, O95817 | -0.961 ± 0.37
BAG family molecular chaperone regulator 3 E57P, O95817 | -0.027 ± 0.16
BAG family molecular chaperone regulator 3 G58F, O95817 | -0.382 ± 0.37
SAFB-like transcription modulator E33L, Q9NWH9 | -0.123 ± 0.061
SAFB-like transcription modulator G19R, Q9NWH9 | -0.757 ± 0.2
SAFB-like transcription modulator D24V, Q9NWH9 | -0.547 ± 0.033
BAG family molecular chaperone regulator 3 G15S, O95817 | 0.814 ± 0.067

Substance | abundance fitness
SAFB-like transcription modulator P63D, Q9NWH9 | -0.553 ± 0.064
SAFB-like transcription modulator I49D, Q9NWH9 | -0.154 ± 0.11
BAG family molecular chaperone regulator 3 P59V, O95817 | 0.263 ± 0.34
BAG family molecular chaperone regulator 3 V54C, O95817 | -0.022 ± 0.12
BAG family molecular chaperone regulator 3 V12R, O95817 | -0.594 ± 0.21
BAG family molecular chaperone regulator 3 I30N, O95817 | -0.166 ± 0.28
SAFB-like transcription modulator L25W, Q9NWH9 | -0.219 ± 0.055
BAG family molecular chaperone regulator 3 N43D, O95817 | -0.622 ± 0.31
BAG family molecular chaperone regulator 3 P52E, O95817 | -0.948 ± 0.38
BAG family molecular chaperone regulator 3 S56I, O95817 | 0.304 ± 0.1
SAFB-like transcription modulator S32P, Q9NWH9 | -0.768 ± 0.058
BAG family molecular chaperone regulator 3 D51W, O95817 | -1.18 ± 0.23
SAFB-like transcription modulator T42C, Q9NWH9 | 0.078 ± 0.097
SAFB-like transcription modulator D29M, Q9NWH9 | -0.081 ± 0.13
BAG family molecular chaperone regulator 3 W26T, O95817 | -0.335 ± 0.074
SAFB-like transcription modulator L39G, Q9NWH9 | -0.475 ± 0.045
SAFB-like transcription modulator T46S, Q9NWH9 | 0.05 ± 0.059
SAFB-like transcription modulator I41C, Q9NWH9 | -0.08 ± 0.15
SAFB-like transcription modulator I28Y, Q9NWH9 | -0.306 ± 0.15
SAFB-like transcription modulator K45C, Q9NWH9 | -0.617 ± 0.052
SAFB-like transcription modulator K35F, Q9NWH9 | -0.267 ± 0.17
SAFB-like transcription modulator V47A, Q9NWH9 | -0.025 ± 0.058
BAG family molecular chaperone regulator 3 H42T, O95817 | -0.55 ± 0.21
BAG family molecular chaperone regulator 3 P37E, O95817 | 0.86 ± 0.092
BAG family molecular chaperone regulator 3 I28R, O95817 | 0.171 ± 0.066

Substance | abundance fitness
SAFB-like transcription modulator S32H, Q9NWH9 | -0.031 ± 0.055
BAG family molecular chaperone regulator 3 D18Y, O95817 | -0.641 ± 0.35
SAFB-like transcription modulator R26W, Q9NWH9 | -0.627 ± 0.1
SAFB-like transcription modulator K20E, Q9NWH9 | -0.354 ± 0.13
SAFB-like transcription modulator R51P, Q9NWH9 | -0.699 ± 0.13
BAG family molecular chaperone regulator 3 R45E, O95817 | -0.422 ± 0.2
BAG family molecular chaperone regulator 3 Q11P, O95817 | -0.132 ± 0.41
BAG family molecular chaperone regulator 3 R53A, O95817 | -0.422 ± 0.14
BAG family molecular chaperone regulator 3 T34L, O95817 | -0.568 ± 0.084
SAFB-like transcription modulator K21S, Q9NWH9 | -0.198 ± 0.056
BAG family molecular chaperone regulator 3 G35R, O95817 | 0.366 ± 0.078
SAFB-like transcription modulator V44E, Q9NWH9 | -0.124 ± 0.075
BAG family molecular chaperone regulator 3 V54S, O95817 | -0.13 ± 0.13
BAG family molecular chaperone regulator 3 P21H, O95817 | -0.103 ± 0.26
BAG family molecular chaperone regulator 3 H42L, O95817 | -0.641 ± 0.18
SAFB-like transcription modulator N38V, Q9NWH9 | -0.688 ± 0.052
BAG family molecular chaperone regulator 3 I30D, O95817 | -0.389 ± 0.14
BAG family molecular chaperone regulator 3 E27L, O95817 | -0.912 ± 0.2
SAFB-like transcription modulator L25G, Q9NWH9 | -0.715 ± 0.071
SAFB-like transcription modulator K45M, Q9NWH9 | -0.325 ± 0.076
BAG family molecular chaperone regulator 3 Q11M, O95817 | 1.03 ± 0.39
SAFB-like transcription modulator Q54T, Q9NWH9 | 0.146 ± 0.09
